Measurements published in publication PMC10550955.

Legend:
β-cas = assay: SPR; homotypic: protein immobilised on CM5 or CM3 chip (~800-1000 RU), the same protein injected at increasing concentrations; BIAcore T200; 20 mM sodium phosphate buffer, pH 7.4; two-state model, one-state model for α-Syn and Chymo
γ-globulin = assay: as above

Row | Substance | Kd (β-cas) [nM] | Kd (γ-globulin) [nM]
1 | β-cas (natural protein) | < 500 | 
2 | γ-globulin (natural protein) |  | < 500
